Source: US20260275378A1 (4D MOLECULAR THERAPEUTICS, published 2026)

Target: T1, complement C3b (UniProt P01024 23-667; P01024 749-1663)
T1 construct: purified C3b (Complement Technology Inc. cat #A114) in the cleavage assay; also called purified C3b; C3b fragment
Test: C3b binding ELISA, C3b-coated plate, HEK293T supernatant
Method: C3b binding ELISA. The C3b binding ELISA is an in-house ELISA adapted from Nichols et. al. ([…] The assay tests if CpG-free miniCFH retains direct C3b binding ability by utilizing monoclonal anti-CFH blocking antibodies to prevent miniCFH binding to a C3b coated plate. The assay was carried out with both full-length recombinant CFH as proof of concept, and supernatants from 293T cells transfected with CpG-free miniCFH. As a control, we included conditions of mock incubation of CFH and transfected cell supernatant with no antibodies.

T1 sequence (P01024 23-667 limits assumed, chain 1 of 2): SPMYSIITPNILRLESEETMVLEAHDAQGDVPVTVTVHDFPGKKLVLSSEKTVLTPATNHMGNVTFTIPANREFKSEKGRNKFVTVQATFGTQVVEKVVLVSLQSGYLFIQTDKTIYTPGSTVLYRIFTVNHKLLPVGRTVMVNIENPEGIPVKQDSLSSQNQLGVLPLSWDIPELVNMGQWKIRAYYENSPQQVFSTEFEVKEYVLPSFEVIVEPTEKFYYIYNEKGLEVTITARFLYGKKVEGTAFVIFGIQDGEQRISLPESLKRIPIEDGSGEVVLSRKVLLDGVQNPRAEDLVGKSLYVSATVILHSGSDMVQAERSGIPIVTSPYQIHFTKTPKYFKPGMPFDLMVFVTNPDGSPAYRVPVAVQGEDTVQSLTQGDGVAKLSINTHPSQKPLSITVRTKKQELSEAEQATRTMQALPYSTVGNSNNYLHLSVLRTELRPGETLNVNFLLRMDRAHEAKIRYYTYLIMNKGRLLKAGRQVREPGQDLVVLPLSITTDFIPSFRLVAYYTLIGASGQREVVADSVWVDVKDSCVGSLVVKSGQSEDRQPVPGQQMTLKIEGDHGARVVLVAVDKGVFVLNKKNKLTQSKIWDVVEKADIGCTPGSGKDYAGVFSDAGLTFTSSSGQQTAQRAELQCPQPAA
T1 sequence (P01024 749-1663 limits assumed, chain 2 of 2): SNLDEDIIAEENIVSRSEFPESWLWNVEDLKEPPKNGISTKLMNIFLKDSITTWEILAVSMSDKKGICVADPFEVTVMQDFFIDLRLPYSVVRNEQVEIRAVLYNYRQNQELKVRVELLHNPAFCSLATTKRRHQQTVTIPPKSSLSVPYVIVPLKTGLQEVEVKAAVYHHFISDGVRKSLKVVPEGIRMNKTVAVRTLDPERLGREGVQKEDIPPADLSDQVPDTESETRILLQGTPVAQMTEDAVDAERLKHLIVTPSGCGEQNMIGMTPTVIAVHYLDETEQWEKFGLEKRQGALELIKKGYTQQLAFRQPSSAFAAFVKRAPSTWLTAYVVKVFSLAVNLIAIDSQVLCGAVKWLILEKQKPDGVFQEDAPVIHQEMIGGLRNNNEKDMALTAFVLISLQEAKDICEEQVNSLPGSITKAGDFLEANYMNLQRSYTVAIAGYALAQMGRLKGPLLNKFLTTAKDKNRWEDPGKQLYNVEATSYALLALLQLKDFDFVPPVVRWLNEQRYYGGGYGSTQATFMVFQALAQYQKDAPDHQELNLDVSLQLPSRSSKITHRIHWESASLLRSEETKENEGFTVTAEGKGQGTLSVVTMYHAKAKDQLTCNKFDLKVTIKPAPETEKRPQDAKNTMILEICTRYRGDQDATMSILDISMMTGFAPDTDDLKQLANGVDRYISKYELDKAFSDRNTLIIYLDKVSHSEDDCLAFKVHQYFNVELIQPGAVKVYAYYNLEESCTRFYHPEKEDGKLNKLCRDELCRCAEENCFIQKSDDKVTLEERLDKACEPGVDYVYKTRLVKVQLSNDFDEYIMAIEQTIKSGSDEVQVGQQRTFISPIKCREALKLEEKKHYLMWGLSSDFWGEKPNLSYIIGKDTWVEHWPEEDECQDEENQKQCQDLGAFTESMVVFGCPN

binding result: binds
B1: miniCFH (shortened form of human complement factor H containing SCRs 1-4, 6-8 and 17-20) (other)
chain: EDCNELPPRRNTEILTGSWSDQTYPEGTQAIYKCRPGYRSLGNIIMVCRKGEWVALNPLRKCQKRPCGHPGDTPFGTFTLTGGNVFEYGVKAVYTCNEGYQLLGEINYRECDTDGWTNDIPICEVVKCLPVTAPENGKIVSSAMEPDREYHFGQAVRFVCNSGYKIEGDEEMHCSDDGFWSKEKPKCVEISCKSPDVINGSPISQKIIYKENERFQYKCNMGYEYSERGDAVCTESGWRPLPSCEEKSTLKPCDYPDIKHGGLYHENMRRPYFPVAVGKYYSYYCDEHFETPSGSYWDHIHCTQDGWSPAVPCLRKCYFPYLENGYNQNYGRKFVQGKSIDVACHPGYALPKAQTTVTCMENGWSPTPRCIRVKTCSKSSIDIENGFISESQYTYALKEKAKYQCKLGYVTADGETSGSITCGKDGWSAQPTCIKSIKTDCLSLPSFENAIPMGEKKDVYKAGEQVTYTCATYYKMDGASNVTCINSRWTGRPTCRDTSCVNPPTVQNAYIVSRQMSKYPSGERVRYQCRSPYEMFGDEEVMCLNGNWTEPPQCKDSTGKCGPPPPIDNGDITSFPLSVYAPASSVEYQCQNLYQLEGNKRITCRNGQWSEPPKCLHPCVISREIMENYNIALRWTAKQKLYSRTGESVEFVCKRGYRLSSRSHTLRTTCWDGKLEYPTCAKR
notes: Tested as unpurified serum-free supernatant of HEK293T cells transfected with the rAAV plasmid cassette; also called CpG-free miniCFH; short CFH
